Laboratory results reported in patent US20200399353A1 (AGENCY FOR SCIENCE TECHNOLOGY AND RESEARCH, published 2020).

Tests used:
[1] = molecular target: T1, cell surface Annexin A2 (ANXA2) on live cells (human, UniProt P07355 2-339, N-linked glycan (N-glycan-dependent epitope; its position is not shown by an experiment)); assay: flow cytometry on live IGROV1 cells
T1 construct: Endogenous ANXA2 on live human cancer cell lines (IGROV1, MCF7 and others) and hESC; also called annexin 2

[2] = molecular target: T1, cell surface Annexin A2 (ANXA2) on live …; assay: flow cytometry

T1 sequence (P07355 2-339 limits assumed): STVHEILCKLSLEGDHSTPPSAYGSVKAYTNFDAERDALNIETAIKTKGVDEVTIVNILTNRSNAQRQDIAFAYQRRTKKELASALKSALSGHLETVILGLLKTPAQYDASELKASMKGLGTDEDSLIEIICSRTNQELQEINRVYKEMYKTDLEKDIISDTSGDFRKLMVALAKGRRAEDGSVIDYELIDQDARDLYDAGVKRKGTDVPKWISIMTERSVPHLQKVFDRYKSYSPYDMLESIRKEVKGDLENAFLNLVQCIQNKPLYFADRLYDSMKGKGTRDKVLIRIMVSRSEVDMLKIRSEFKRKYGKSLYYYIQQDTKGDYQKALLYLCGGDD

binding result [1]	binding result [2]	Binder
binds	–	mAb 2448 (antibody, V domains shown) VH: VQLQESGPDLVKPSRSLSLTCTVTGYSITSGYSWHWIRQFPGNKLEWMGYIHYSGSTKYNPSLKSRISITRDTSKNQFFLQLNSVTTEDAATYYCARGSNYGFDYWGQGTTLTVSS VL: DIELTQSPSSLAVSVGEKVTMSCKSSQSLLYSNDQKNYLAWYQQKPGQSPKLLIYWASIRESGVPDRFTGSGSGTDFTLTISSVKAEDLAVYYCQQYYIYPLTFGAGTKLEIKR
–	binds	Chimeric mAb ch2448 (antibody, V domains shown, also called wildtype chimeric mAb ch2448) VH: VQLQESGPDLVKPSRSLSLTCTVTGYSITSGYSWHWIRQFPGNKLEWMGYIHYSGSTKYNPSLKSRISITRDTSKNQFFLQLNSVTTEDAATYYCARGSNYGFDYWGQGTTLTVSS VL: DIELTQSPSSLAVSVGEKVTMSCKSSQSLLYSNDQKNYLAWYQQKPGQSPKLLIYWASIRESGVPDRFTGSGSGTDFTLTISSVKAEDLAVYYCQQYYIYPLTFGAGTKLEIKR
–	binds	Afucosylated ch2448 (antibody, V domains shown, also called aF-ch2448) VH: VQLQESGPDLVKPSRSLSLTCTVTGYSITSGYSWHWIRQFPGNKLEWMGYIHYSGSTKYNPSLKSRISITRDTSKNQFFLQLNSVTTEDAATYYCARGSNYGFDYWGQGTTLTVSS VL: DIELTQSPSSLAVSVGEKVTMSCKSSQSLLYSNDQKNYLAWYQQKPGQSPKLLIYWASIRESGVPDRFTGSGSGTDFTLTISSVKAEDLAVYYCQQYYIYPLTFGAGTKLEIKR
